We go through 1 sequence from patent US20230227833.

The series deals with Reverse transcriptase (RT). Put plainly: inhibition. As to conditions: RNA strand 3' phosphate; DNA strand 3' dideoxy; 37 C; activity fully released at 55 C.

For “TCGAACGGGACGGCTGGCTGTGTGTGT / CCAGCCGTCC [analogs 6+7 (RNA/DNA)]”, the activity (% residual activity) came to 16.
